Assay: yeast display, Sf9 membrane polyspecificity reagent, FACS + sequencing; frameworks hold sequencing errors
Method in brief: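 In a synthetic yeast display library (Saccharomyces cerevisiae BJ5465), nanobody expression was induced with galactose for 36–48 hours. FACS gates were set low and high (top ~1%) using anti-HA fluorescence for expression and streptavidin fluorescence for binding of the Sf9 membrane reagent. Each polyreactivity label is drawn from the gate of origin.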

| Sequence | polyreactivity (PSR sort gate) |
| --- | --- |
| QVQLVESGGGLVQAGGSLRLSCAASGFTFASYAMGWYRQAPAKEREFVAAITSRGGNTYYADSVKGRFTISRDNAKNTVYLQMNSLKPEDTAVYYCAAKSTYVVSKMNYWGQGTQVTVSS | high polyreactivity |
| QVQLVESGGGLVQAGGSLRLSCAASGSTFTVNAMGWYRQAPGKERELVAVIRKSGTSTYYADSVKGRFSISRDNAKNTVYLQMNSLKPEDTAVYYCAAGGPSTLDDYWGQGTQVTVSS | low polyreactivity |
| QFQLVESGGGLVQAGGSLRLSCPPSGSIFPGYAMGWSRQSPGKERELVATITWSGGSTYYADSVKGRFTISRDNAKNTVYLQLTSLKPEDTAVYYCNADTNWYYQLNYYGLYDYWGQGTQVTVSS | low polyreactivity |
| QVQLVESGGGLVQAGGSLRLSCAASGRILPGNAMGWYRQAPGKERELVATITNGGRTYYADSVKGRFAISRDNAKNTVYLQMNSLKPVDTAVYYCAAVVVRFIYVYFEFEWGQGTQVTVSS | low polyreactivity |
| QVQLVESGGGLVQAGGSLRLSCAASGFTFPRNAMGWYRQAPGKERELVAAISRGGGGTYYADSVKGRFTISRDNAKNTVYLQMNSLKPEDTAVYYFNAVYPGGSYKYDYWVQGTQVTVSS | high polyreactivity |
| QVQLVESGGGLVQAGGSLRLSCAASGRTFYIYAMGWYRQAPVKERELVAAITYGGGRTFYADSVKGRFTISRDNAKNTVYLKMNSLKPEDTAVYYCARGDFYYHSRYTYYTSDYWGQGTQVTVSS | high polyreactivity |
| QVQLVESGGGLVQAGGSLRLSCAASGNIFGYYAMGWYRQAPGKERELVAAITTTGGSTYYADSVKGRFTISRDNAKNTVYLQMNSLKPEDTAVYYCAAETGYWYYYWGQGTQVTVSS | high polyreactivity |
| QVQLVESGGGLVQAGGSLRLSCAASGTTFYRNAMGWYRQAPGKERELVAAISWTGGRTYYADSVKGRFTISRDNAKNTVYLQMNSLKPEDTAVYYCNKGDSASSLDYWGQGTQVTVSS | high polyreactivity |
| QVQLVESGGGLVQAGGSLSLSCAASGSIFGDYVLGWYRQAPGKERELVAAINRGGSTYYADSVKGRFTISRDNAKNTVYLQMNSLKPEDTAVYYCAAGYPSWYYGYPYDSWGLGTQVTVSS | low polyreactivity |
| QVQLVESGGGLDQAGGSLRLSCAASGSIFHWNVMGWYRQAPGKERKLVAVISSSDGSTNYADSVKGRFTISRDNAKNTVYLQMNCLKPEDTAVYYCAARGYAINYLWPFNYWGQGTQVTVSS | low polyreactivity |
| QVQLVESGGGLVQAGVSLRLSCAASGRILHGYAMGWYRQAPGKEREFVAAITSSGGRTYYADSVKGRFTISRDNAKNTVYLQMNSLKPDDTAVYYCAADRPAYRTGDSKYDYWGLGTQVTVSS | low polyreactivity |
| QVQLVESGGGLFQAGGSLRLSCAASRLIFPLYAMGWYRKAPWKERELVAANTRGGSTYYADSVKGRLTISSDNANNTVYLQINSLKAEDTAVYDCNDELPVHWSWYDYWGQGTQVTVSS | low polyreactivity |
| QVQLVESGGGLVQAGGSLRLSCAASGNTFGENAMGWYRQAPGKERELVAAISNGGTTNYADSVKGRFTISRDNAKNTVYLQMNSLKPEDTAVYYCNAKFGISQPGHSGLLKMDYWGQGTQVTVSS | low polyreactivity |
| QVQLVESGGGLVQAGGSLRLSCAASGSTLGVYVMGWYRQAPGKERELVAAISRNGGSTYYADSVKGRFTISRDNAKITVYLQMNSLKPEDTAVYYCAARTVGRKAGFDYWGQGTQVTVSS | high polyreactivity |
| QVQLVESGGGLVQAGGSLRLSCAASGFIFAGYAMGWYRQAPGKERELVAAISGSGGRTYYADSVKGRFTISRDNAKNTVYLQMNSLKPEDTAVYYCNAGKQYRYDWGQGTQVTVSS | high polyreactivity |
| QVQLVESGGGLVQAGGSLRLSCAASGRTFYTYTMGWYRQAPGKERELVAAISKSGTSTYYADSVKGRFTISRDNAKNTVYLQMNSLKPEDTAVYYCAARAYYARFLMGYWGQGTQVTVSS | high polyreactivity |
| QVQLVESGGGLVQAGGSLRLSCAASGLIFSGYAMGRYRQAPGKERELVAAITWSGGSTYYADSVKGRFTISRDNAKNTVYLQMNSLKPEDTAVYYCNAKFFQISRYGYWGQGTQVTVSS | high polyreactivity |
| QVQLVESGGGLVQAGGSLRLSSAASGSTFQLYAMRLYRQAPGKETELVAAISGIGDSTYYADSVKGGFTISRDNAKNTVYLQMNSLKPEDTAVYYCAREFSDGLSGKFDYWGQGTQVTGSS | low polyreactivity |
| QVQLEESGGGLVQAGGSLRLSCAASGITFLRNAMGWYSQAPGKERELVAAISRSGGRTYYADSVKGRFTISRDNAQNTVYLQMNSLKPEDTAVYYCAVVTQFGDGYYWGQGTQVTVSS | high polyreactivity |
| QVQLVESGGGLVQAGGSLRLSCAASGIIFRLYAMGWYRQAPGKERELVAAITSRGGSTYYADSVKGRFTISRDNAKKTVYLQMNSLKPEDTAVYYCAARPVYSGYDYWGQGTQVTVSS | high polyreactivity |
| QVQRVESGGGLVQAVGRLRLSCAASGSTFYTYTMGWYRPARGKERELVAAITWSGGSTYYADSVKGRFTISRDNAKNTVYLQMNRLKPEDTAVYYCNADQDYQGARPSGMDYWGLGTQVTVSS | low polyreactivity |
| QVQLVESGGGLVQAGGSLRLSCGASGRIFPGNAMGWYRQATGKERELVAGISFSGGRTYYADSVKGRFTISRDNAKNTVYLQMNSLTPEDSAVYYCATKYLQHWWRYDYWGQGTQVTVSS | low polyreactivity |

| Sequence | polyreactivity (PSR sort gate) |
| --- | --- |
| QVQLVESGGGLVQAGGSLGLSCAASGFTFTYYAMGWYRQAPGKERELVASISWRGGSTYADSVKGRFTISRDNAQNTVYLQMNSLTPEDTAVYYCAADGYSYGNYIYDYWGQGTQVTVSS | low polyreactivity |
| QVQLVESGGGLVQAGGSLRLSCAASGRIFYHYAMGWYRQAPGKERELVATIRRRGSSTYYADSVKGRFTISRDNAKNTVYLQMNSLKPEDTAVYYCAAGPTTNRYNYWGQGTQVTVSS | high polyreactivity |
| QVQLVESRGGLVQAGGSLGLSCAASGSTFGYYAMGWYRQAPGKERELVAGISTGGSTYYAYSVKGRFTISRDNAKNTVYFQINSLKPDDTAVYYCAATRYNRWPIKFDYWGQGTQVTVSS | high polyreactivity |
| QVQLVESGGGLVQAGGSLRLTCAPSGRIFTRNTMGSYRQAPGKERELVAAISTGASTYYADSVKGRFTISRDNATNSVYLQMNSLKPEVTAVYYCATRGYARYWGLGTQVTVSS | low polyreactivity |
| QVLLVESGGGLVQAGGSLRLSCAASGIIFYRNAMGWYRQAPGKERELVAVITASGGHTYYADSVKGRFTISRDNAKNTVYLQMNSLKPEDTAVYYCNRELTSPRRWHVSRADDYWGQGTQVTVSS | low polyreactivity |
| QVQLVESGGGLVQAGGSLRLSCAASGIIFAWYAMGWYRQAPGKERELVAAISYSGGTTYYADSVKGRFTISRDIAKNTVYLQMNSLKPEDTEVYYCAGRLHLFFSYDYWGQGTLVTVSS | low polyreactivity |
| QVQLVESGGGLVQAGGSLRLSCAASGSTIADNAMGWYRQAPGKERELVAAITRSGVRTYYADSVKGRFTISRDTAKNTVYLQMNSLKPEDTAVYYCAKRTYPSRIYDYWGQGTQVTVSS | high polyreactivity |
| QVQLVESGGGLVQAGGSLRLSCAASGIFVDNAMGWYRQAPGKERELVAAISGSGGSTFYADSVKGRFTISRDNAKNTVYLQLNSLKPEDTAVYYCNADVYPHPAFFVGHDYWGHGTQVTVSS | low polyreactivity |
| QVQLVESGGGLVQAGGSLRLSCAASGRTFKHNAMGWYRQAPGKERELVAAINQSGSSTYYADSVKGRFTISRDNAKNTVYLQMNSLKPEDTAVYYCAAGVFFFTFDYWGQGTQVTVSS | low polyreactivity |
| QVQLVESGGGLVQAGGSLRLSCAASGIIFYRYTMGWYRQAPGKERELVAAITSGGDTNYADSVKGRFTISRDNAKNTVYLQMNSLKPEDTAVYYCNADCWWYLYLYDFWGQGTQVTVSS | high polyreactivity |
| QVQLVESGGGLVQAGGSLRLSSAASGRIFYSNAMGWYRQAPGKERELVAAITRSGGGTYYADSVKGRFTISSDNAKNTVYLLMNSLKPEDTAVYYCAAIYNWWGLGSLYYGSNYWGQGTQVTVSS | high polyreactivity |
| QLLLQESGRGLVQAGVSLRLSCAASGSIFLVYTIGCYRKAPLKEREFVAGIPLGTTTYNADSVKGRFTISRDNVKNTVYLQINSLKPEDTSVYYCAVAVGHYTDIWDWGQGTQVTMSS | high polyreactivity |
| QVQLVESGGGLVQAGGSLRLSCAASGIFRLNAMGWYRQAPGKERELVAAISWSGGSTRYADSVKGRFTISRDNAKNTVYLQMNSLKPEDTAVYYCAKKLRGWHTIITDYDYWGLGTQVTVSS | low polyreactivity |
| QVQLVESGGGLVQAGGSLRLSCAASGITFGPYAIGWYRQAPGKERELVAAISAGGGSTYYADSVKGRFTISRDNAKNSVYLQMNSLKPEDTAVYYCAAYLLHHYGGPEYYYWGQGTQVTVSS | high polyreactivity |
| QVQLVESGGGLVQAGGSLRLSCAASGLTFPANVMGWYRQAPGKERELVAAISRSGGTTYYADSVKGRFTISRDNAKNTVYLQMNILKPEDTAVYYCAAYQVSYFGGSMDYWGQGTQVTVSS | high polyreactivity |
| QVQLVESGGGLVQAGGSLRLICAAYGSTFVTNVMGWYRQAPGKERELVAAISARGGSTYYADSVKGRFTISRDNAKNTVYLQMNSLKPEDTAVYYCNAVVRPWQSYYYWGQGTQVTVSS | high polyreactivity |
| QVQLVESGGGLVQAGGSLRLSCAASGFIFGYNGMGWYRQAPGKERELVAGITYSDGSTYYADSVKGRFTISRDNAKNTVYLQMNSLKPEDTAVYYCAVDVIYYWAEDYDYWGQGTQVTVSS | low polyreactivity |
| QVQLVESGGGLVQAGGSLRLSCAASGYIFSKYALGWYRQAPGKERELVASITGRGSRTYYADSVKGRFTISRDNAKNTVYLQMNSLKAEDTAVYYCAADWYGQKTSNRWYFRPGYVYWGQGTQVTVSS | high polyreactivity |
| QVQLVESGGGLVQAGGSLRLSCAASGFTFFAYPMGWYRQAPGKERELVAGISRSGGRTYYADSVKGRFTISRDNAKNTVYLQMNSLKPEDTAVYYCNAVVRRSYLLEYDFCGQGTQVTVSS | high polyreactivity |
| QVQLVESGRGLVQAGGSLRLSCAASGRTFAYYAMGWYRQAPGKERELVAGITTGGITNYADSVKGRFTISRDNAKNTVYLEMNRLKPEDTAVYYCAKANLFTYWYPGGNFDSAQSDYWGQGTQVTVSS | low polyreactivity |
| QVHLVESGGGLVQAGGSLRLSCAASGSIFRLYSMGWYRQAPGKERELVARITTGGSTNYADSVKGRFTISRDNAKNTVYLQMNSLKPEDTAVYYCNAGVWVTAQLGLQKYSYWGQGTQVTVSS | high polyreactivity |
